Laboratory results: patent publication US20190004063A1

Legend:
Assay in all cases: flow cytometry on modified HEK293T cells without CD74
[1] = biological target: SLA-DRα*w04 + DRβ1*0403 (pairing 3) on modified HEK293T cells without CD74 (pig)
[2] = biological target: SLA-DRα*020102 + DQβ1*0303 (pairing 9) on modified HEK293T cells without CD74 (pig)
[3] = biological target: SLA-DRα*w04 + DQβ1*0303 (pairing 10) on modified HEK293T cells without CD74 (pig)
[4] = biological target: SLA-DRα*020102 + DRβ1*0403 (pairing 1) on modified HEK293T cells without CD74 (pig)
[5] = biological target: SLA-DQα1*0101 + DQβ1*0601 (pairing 8) on modified HEK293T cells without CD74 (pig)
[6] = biological target: SLA-DQα1*0204 + DQβ1*0601 (pairing 6) on modified HEK293T cells without CD74 (pig)
[7] = biological target: SLA-DQα1*0204 + DQβ1*0303 (pairing 5) on modified HEK293T cells without CD74 (pig)
[8] = biological target: SLA-DRα*020102 + DRβ1*1001 (pairing 2) on modified HEK293T cells without CD74 (pig)
[9] = biological target: SLA-DRα*w04 + DRβ1*1001 (pairing 4) on modified HEK293T cells without CD74 (pig)
[10] = biological target: SLA-DQα1*0101 + DQβ1*0303 (pairing 7) on modified HEK293T cells without CD74 (pig)

- background MFI [1]: 1000 MFI
- background MFI [2]: 1000 MFI
- background MFI [3]: 1000 MFI
- background MFI [4]: 1000 MFI
- background MFI [5]: 1000 MFI
- background MFI [6]: 1000 MFI
- background MFI [7]: 1000 MFI
- background MFI [8]: 1000 MFI
- background MFI [9]: 1000 MFI
- background MFI [10]: 1000 MFI
Substance: CerCLIP.1, a monoclonal antibody specific for invariant chain peptides associated with Class II SLA
